# Test: protease stability score; higher = more stable; yeast display proteolysis, trypsin and chymotrypsin;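 note: log10 excess protease needed over predicted unfolded state with 0 meaning unfolded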
row,Sequence,protease stability score
1,DEEDQKTVEEFLHNLEKNNEDQIKRLLDKDVKFIIGDKELHGMEDAVDRLRRHIEEMKVRIESVSNTVSGDKVVVDFTFIEDQNGKPDRKRMKIEFRFHNGKAKEIRIETRQ,1.38
2,DDDATKVVKEFLSALKTNNPDRARELIDKDVRVRVGDKEIHGREQLITHIETDLKKIRIEIKHMHIDVTGEDIIIHQVFVDEHNGRPHTQTVVVFIEMNNGRVKNVRSETSS,0.322
3,DDQEIAEQAARDFDTAVQEGDEDQIVRMADPNVQLQIGDERYRGREDLRKWIKDIRRQVDHVDVRVRDLKVQGEHVRARIEVQYTENGKTRRYQFEMTNNIHNGRVRMTQVNEK,0.948
4,DEEFAKTVVQMFRNWVHGDPSDMTRMLDENAHVVIGDTTLRGRDDVSRYVNELHDHMRFHVDRLSEENRPGRAVVKAQNNNVHNGEPTTNRAVVEVNVKNGKAQDIQYNSDK,-0.36
5,EKEDLQQIARDMAKAVVSGDKEQMRRLADENARAQIGDKTLHGREKLSELIKRIRDRVDHLRLVDVRQDGDQIQVYVDLVVNGRKRRFTIEAEAHNGHIHSVTFDPRAKEFLDS,1.79
6,DEETRKRVETLLEALETGNPEEISKQIDPNATVVVGDKTLHGREDIRDWVRRQHEKIRVEYKHVQIRIHNGRAHVTFEAVVEVNGKPKTVRAQMVFTVSNGKFQHIELHLDEEWKKMEKG,1.38
7,DEHDEKIVQTFLTALRTGDEEELQKNMDPNVSVHIGDQEVNGREEIARQLKKEQDEMRVDIRRYHISAHNGRVEVRIKFTAEVNGKPNRFTVVYDFVLHNGHIEKMHVKMSREDKKKKKQ,-0.189
8,DEEDADRILKLLKKNNFEELARNADPNVHVRIGDTRIHGREEVTSHMKRLTDRIDHVDWRSMSVTGDRVVVRAVYTVNGDRIDFEIEIQFHNGRVVSVRFQARDEDDKHKYRKAEK,0.428
9,DEEDMNTLQKMNEKNDEEKLQKLADEDARFVVGDKTLTGHHEFQTFVHRFVKHVDHLQVDSVEVQGNQVDLDVRAEINGRHYRFQIVIIIQNGRLKEYRLQATDEDEEEKFKKMIE,1.25
10,DDHAIRLLHEMIKAERTNDPDKLKEQMDPNAKIKYGDKTVHGRNDAVRYLEETVEHARVSIQVKSIKDQGDQAIADATITVNINGRPQQFKITIVAKFHNGRIKEVEIRVSEEQERQMES,0.785
11,DEQAQKRAKNFMTAIQSNDPQKVKENVDKDVNIRIGDRIVHGREQLEDYYSHWNTKMRQRVSFKRMDVQGNHVDLKAEASNTNNGQPNHFEVRITITFHNGKIEKANLEFQP,-0.422
12,DEEARNVFEEILKAIRHGDPDHAKNLADPNARIRVGDKKVDGMEQWATEMHHNWQEIRIHMRITSVDHQGEKVRLHLSRTSNHNGRPRKADIDLEMVATNGKLKSQKHSQKK,0.2
13,DEEKQAHHLLRLLQEVLNNGDEDKARKLADPNVELSVGDKEVHGREKFTKYLYQISKRSDHANMSLTRIDTKPGRIVLVFTLRLNHNGNNTHKRMRAVASVRNGQVVVKHLVDQ,0.728
14,DEHTERTLSRLVKRNDEKTMADRADENARAEYGDTTYHGKEEFKKWVNKMEERVDHRDLKEIRVHGNKIKVKMDQEVNGRRVEMEFEAHYHNGRLKFEVMKVRDEEQKEQLKQQQT,-0.09
15,DDRQRRQFAERVQKVLRTGDPERFMQMADENVQVHVGDQTYRGRDQAEKNMREFVKRVDHLQIISFHFEGNHAVIVFIAHFDGKEATIEMVIRFSNGHIKEMKINPDQIRQMRS,1.21
16,DPKKFHKAAVLLAQAAMNGDYKRVVELYKPDARLTLVDQEVQGQEQIKKHAKKFYDRGKRFQFKRVEVTGDYVKLQFDIEVGGTRVTFEARVHAQDDTVDEYELRFDDTAREMQERG,0.073
17,DEEEDNELAKRAAKAMSTNDEDQVENLVDKDVRLEVGDKTYTGDEQVRSAIQEFRRRADHVKVNKLKVEDGQANLRFTVNWNGVELDMVIHVKATNGKIKTVTIKVRDPEQERRFKS,0.024
18,DEDKVKKIAEELWKAISNGDEERMKKLMRDDVRAQVGDTEVHGREHVVHQLATFAKQVDHLTMETYDIRGNHVTFRFQARVNGKRVQIDMVIHVSNGRIKELRIDPKQVKELES,1.22

row,Sequence,protease stability score
1,DEEQEARDQIKKYLDIFRTGDPDQAKKLFDKDAEVRIGDKHVRGREQISDFFKKLLHKADHVEYTIQDYDVHGDKVTVHLTVVINVNGDERRNTMVIVIKVQGEKERVQSVRVG,1.09
2,DEDEDDKMRKLIKTNNPQEIAQNADPNVEATVGNKTYHGREQMQQIAEIFRTMADHVHVDRVDADNGHVSAHRVITVNGHKVNVKVRFNISNGRIKRQEIDVTSEQDHRELEKNYN,0.162
3,DDHKVEHVNRLFETNNPDKLAKNVDPNADNQVGDKRYHGRQKIHTFLKNMYTRVDHVDIHRISVNGNRLQIDATYDIDGRRFYADMRFRLHNGRIKEVRVRFTNEEQDKVVKEAVK,0.985
4,DEEDLKHMNENFESGNPDQIVEMFDKDARITVGNKKYRGREDIRKFAEMIRKQVDNRRLKSVEVEGNKFRIQWMFVVNGRRIEAVLHVHAHNGKVKEMSIEVTNPEDQTQYDRDAD,1.66
5,DEEEAKKNVKVWEQNDPDTFNKLVDKDAKAVIGDKEVHGRSEINRIIKRLLQQADHWQVDEVHIHNGRVHISYQFVINGQRLDVRVTIELRNGRIKDVKVHFTDDEQKKRANENVR,0.943
6,DSEKYLKDLNSNLLRILQTNDEKKLRDLVDKDVKITVGDKSYHGREEFAKVLRTLLNEHDKWRVHYQSIHQHNGKLRAVIDLKAENNGQTLSRNLDITAEERNGEVHVKHAQIG,1.08
7,DEDANRRLRRLIEQIHENDPDKIDEMFDPNARVDIGDHTVHGREQLRQTVKREAKEIRIRIERLDVRVKGDKATVEMHFVRKNNGEPRSNRVVVTARIRNGKIESMKQTEDG,0.763
8,DDTLKRRISELLRAEKHNDPDKINRLFDPNAHIEYGDHRIHGREELKRQITKRMKELRFRIDRVDLEVKGNHARLRIDMTQNHNGTPRRMILDVKINASNGTIHSVDVKLDG,0.297
9,DQEKLQSYVKQYETNDESKLKKNMDENARVDIGDRRITGMEKAADILRHFMEQADHVKLDRMEVQGNHATVDVTAVVNGQKLDYKFVIHVHNGKVKRVEWRVTSEENQKTYDKIVG,0.537
10,DEEQARRFREFMEVVRQGDEEKIKRYVDPNARVEVGEETLHGREDIAEWWQKVVRQIRVDITITKMSVSNGKLEIHARAQYEHNGTPEDNRQVIVIQWHNGVAKTIRMEKDG,0.653
11,DRDKERKVIEKLMNALQNNDENQIRKLIDPNARLVYGDKELHGREEVVKFLVTLLNQVDRIEYKSYDFHNGHANIDFTLRFNGQNATFTMEIRVKNGRVDHITLDPQQINRMNS,0.885
12,DEEESDRLKELFRVMRTGDHKRAENMLDPNARFKVGDKKFEGRHEWQKDIKKTKEESHADIKIKDVHFDNGRVDVTLEMVVLHNGRPKKFRVKFVATIQGEKVKEAHITESQ,-0.094
13,DEDLFRRLSELMHAVTNGDEEELVKQADKDARIQYGDKVFHGMDEAARELVRQQKEIRQSWEIKSWDHQGDKVRVTIKNSQDHDGRPHSNRIDVEVKQRNGKVTTARFQTHP,0.148
14,DDKEARKFAKDYVDAMKTGDEKRIEEMVDPNVSFQIGDQTYHGREQLKQALRSRRHHADHVQVDHVEAQGDKIDIDVQFNINGRDDKVKIKIRVHNGRIKEVVIEKK,0.99
15,DDDQKRRVEDWWKVLNHGDPDKLRTLADENAKFDVGDKKYHGMTRAADELVRTLREIRLNIRRMEIQVHNGRVVANVDAEVRVNGNPMQIHYTAQMTASNGKITSVQNRIPSEQLKRLRK,0.165
16,DDDEIRRLAKRVVKALHDGDPDEMMRLADENAKIDVGDHRIRGREQLRDFVKQLTEDVDHIRIHDYRVTPNHARVVVVVDHNGQKSTFVVEAHMDNGTIKSMRFHER,0.462
17,DEHSDAKRVLEELSKAMENGDEQRVEDQLDENVRINVGENHYHGREHARLWFKQIVDHVDHVRDSMEDYRNQGENFVYVMSVVYQSNGQEKSIRIVYVMKNHNGTVRMVNVHEG,1.02
18,DEEKVKKLLEQMVRAYVSGHAEEVKKLGKDDGELHAGDQTYHGKEQIYKVVKKFKEYGVQLQITDMKYDGDRLDVKAELHHGGTTWEFRVTVQADGGKVDRLQVDVSEEAKKTIKHG,1

# Reference: the NTF2 design screens of Basanta et al. (2020)
